molecular target: HLA-A*02:01 (Homo sapiens, UniProt P04439, D140Y/D185E/D98H/E176V/E277Q/G131W/G231S/I119V/I121R/I166T/I218V/L300P/L318F/N151K/N90K/P208A/P217A/Q86G/Q94H/R138H/R169H/T345S); test: MHC binding assay (UV-ligand exchange, beta2m ELISA); details: binding to HLA-A*02:01, UV-ligand exchange
Text: Candidate peptides for T cell based therapies according to the present invention were further tested for their MHC binding capacity (affinity). The individual peptide-MHC complexes were produced by UV-ligand exchange, where a UV-sensitive peptide is cleaved upon UV-irradiation, and exchanged with the peptide of interest as analyzed. Only peptide candidates that can effectively bind and stabilize the peptide-receptive MHC molecules prevent dissociation of the MHC complexes. To determine the yield of the exchange reaction, an ELISA was performed based on the detection of the light chain (β2m) of stabilized MHC complexes. The assay was performed as generally described in Rodenko et al. (Rodenko et al., 2006).
96 well MAXISorp plates (NUNC) were coated over night with 2 ug/ml streptavidin in PBS at room temperature, washed 4× and blocked for 1 h at 37° C. in 2% BSA containing blocking buffer. Refolded HLA-A*02:01/MLA-001 monomers served as standards, covering the range of 15-500 ng/ml. Peptide-MHC monomers of the UV-exchange reaction were diluted 100 fold in blocking buffer. Samples were incubated for 1 h at 37° C., washed four times, incubated with 2 ug/ml HRP conjugated anti-β2m for 1 h at 37° C., washed again and detected with TMB solution that is stopped with […]. Absorption was measured at 450 nm. Candidate peptides that show a high exchange yield (preferably higher than 50%, most preferred higher than 75%) are generally preferred for a generation and production of antibodies or fragments thereof, and/or T cell receptors or fragments thereof, as they show sufficient avidity to the MHC molecules and prevent dissociation of the MHC complexes.

Substance	Peptide exchange (MHC class I binding score, peptide exchange yield)
114 (GLSDISPST; listed as Homo sapiens) [compound 114]	“++” (≥20% = ++)
94 (LLAGQATTAYF; listed as Homo sapiens) [compound 94]	“+++” (≥50 = +++)
143 (TLHAVDVTL; listed as Homo sapiens) [compound 143]	“+++” (≥50 = +++)
137 (FIQQERFFL; listed as Homo sapiens) [compound 137]	“+++” (≥50 = +++)
110 (YQYPFVLGL; listed as Homo sapiens) [compound 110]	“++++” (≥75% = ++++)
124 (FLGVVVPTV; listed as Homo sapiens) [compound 124]	“+++” (≥50 = +++)
115 (LLIDIIHFL; listed as Homo sapiens) [compound 115]	“++++” (≥75% = ++++)
45 (FILDDSALYL; listed as Homo sapiens) [compound 45]	“+++” (≥50 = +++)
70 (VLIEILQKA; listed as Homo sapiens) [compound 70]	“++++” (≥75% = ++++)
133 (ALEELTGFREL; listed as Homo sapiens) [compound 133]	“++” (≥20% = ++)
102 (SLFAAISGMIL; listed as Homo sapiens) [compound 102]	“+++” (≥50 = +++)
81 (FIFSYITAV; listed as Homo sapiens) [compound 81]	“++” (≥20% = ++)
32 (VLNEDELPSV; listed as Homo sapiens) [compound 32]	“+++” (≥50 = +++)
85 (GLAPAEVVVATVA; listed as Homo sapiens) [compound 85]	“+++” (≥50 = +++)
131 (VLIEETDQL; listed as Homo sapiens) [compound 131]	“++” (≥20% = ++)
11 (GLDTVVALL; listed as Homo sapiens) [compound 11]	“+++” (≥50 = +++)
75 (AALKYIPSV; listed as Homo sapiens) [compound 75]	“+++” (≥50 = +++)
125 (FVAPPTAAV; listed as Homo sapiens) [compound 125]	“+++” (≥50 = +++)
174 (VLVEITDVDFAA; listed as Homo sapiens) [compound 174]	“++++” (≥75% = ++++)
87 (GLFARIIMI; listed as Homo sapiens) [compound 87]	“++” (≥20% = ++)
165 (KLLEEIEFL; listed as Homo sapiens) [compound 165]	“+++” (≥50 = +++)

Substance	Peptide exchange (MHC class I binding score, peptide exchange yield)
80 (YLFDEIDQA; listed as Homo sapiens) [compound 80]	“+++” (≥50 = +++)
78 (AMEEAVAQV; listed as Homo sapiens) [compound 78]	“+++” (≥50 = +++)
64 (FLVEVSNDV; listed as Homo sapiens) [compound 64]	“++++” (≥75% = ++++)
142 (FLYEDSKSVRL; listed as Homo sapiens) [compound 142]	“+++” (≥50 = +++)
169 (SSLEENLLHQV; listed as Homo sapiens) [compound 169]	“+++” (≥50 = +++)
144 (GLITQVDKL; listed as Homo sapiens) [compound 144]	“+++” (≥50 = +++)
39 (QLLPQGIVPAL; listed as Homo sapiens) [compound 39]	“+++” (≥50 = +++)
4 (TLLGFFLAKV; listed as Homo sapiens) [compound 4]	“++” (≥20% = ++)
171 (TLLDVISAL; listed as Homo sapiens) [compound 171]	“++++” (≥75% = ++++)
38 (YLTAEILELAGN; listed as Homo sapiens) [compound 38]	“++” (≥20% = ++)
79 (AMKEEKEQL; listed as Homo sapiens) [compound 79]	“++” (≥20% = ++)
118 (VLDGMIYAI; listed as Homo sapiens) [compound 118]	“+++” (≥50 = +++)
120 (VLLGTTWAL; listed as Homo sapiens) [compound 120]	“+++” (≥50 = +++)
34 (LLWEDGVTEA; listed as Homo sapiens) [compound 34]	“+++” (≥50 = +++)
116 (SLLDNLLTI; listed as Homo sapiens) [compound 116]	“+++” (≥50 = +++)
145 (GLLHEVVSL; listed as Homo sapiens) [compound 145]	“+++” (≥50 = +++)
91 (HLSSTTAQV; listed as Homo sapiens) [compound 91]	“++” (≥20% = ++)
15 (IIIEDLLEA; listed as Homo sapiens) [compound 15]	“++++” (≥75% = ++++)
150 (ILSEKEYKL; listed as Homo sapiens) [compound 150]	“+++” (≥50 = +++)
104 (VLLGLPLLV; listed as Homo sapiens) [compound 104]	“+++” (≥50 = +++)

More lines, now with the values ahead:

Peptide exchange (MHC class I binding score, peptide exchange yield)	Substance
“++++” (≥75% = ++++)	265 (ILWHFVASL; listed as Homo sapiens) [compound 265]
“+++” (≥50 = +++)	235 (SLDVYELFL; listed as Homo sapiens) [compound 235]
“+++” (≥50 = +++)	198 (GLLSAVSSV; listed as Homo sapiens) [compound 198]
“++++” (≥75% = ++++)	249 (VLLESLVEI; listed as Homo sapiens) [compound 249]
“+++” (≥50 = +++)	201 (YLNISQVNV; listed as Homo sapiens) [compound 201]
“+” (≥10% = +)	185 (FIAQLNNVEL; listed as Homo sapiens) [compound 185]
“++++” (≥75% = ++++)	289 (SLLAANNLL; listed as Homo sapiens) [compound 289]
“++++” (≥75% = ++++)	259 (TVLDGLEFKV; listed as Homo sapiens) [compound 259]
“+++” (≥50 = +++)	278 (FLLFINHRL; listed as Homo sapiens) [compound 278]
“+++” (≥50 = +++)	311 (YLHRQVAAV; listed as Homo sapiens) [compound 311]
“++” (≥20% = ++)	227 (IIAEGIPEA; listed as Homo sapiens) [compound 227]
“++” (≥20% = ++)	230 (IMDDDSYGV; listed as Homo sapiens) [compound 230]
“+++” (≥50 = +++)	222 (FLIETGTLL; listed as Homo sapiens) [compound 222]
“+++” (≥50 = +++)	239 (VLIDDTVLL; listed as Homo sapiens) [compound 239]
“+++” (≥50 = +++)	214 (FLFDGSMSL; listed as Homo sapiens) [compound 214]
“++++” (≥75% = ++++)	221 (FLAPDNSLLLA; listed as Homo sapiens) [compound 221]
“+++” (≥50 = +++)	212 (FLIGQGAHV; listed as Homo sapiens) [compound 212]
“+++” (≥50 = +++)	175 (VMESILLRL; listed as Homo sapiens) [compound 175]
“+++” (≥50 = +++)	291 (KIIDTAGLSEA; listed as Homo sapiens) [compound 291]
“++” (≥20% = ++)	206 (SAVSGQWEV; listed as Homo sapiens) [compound 206]

Reference: patent US10702592B2, “Peptides and combination of peptides for use in immunotherapy against NHL and other cancers” (Immatics Biotechnologies GmbH, priority 2016, dated 2020)
